These results are taken from article PMC10350107.

In data set [1] the target is human MCM8–9 complex, wild type (FLAG-MCM8 with MBP-MCM9, co-expressed) (human) (UniProt Q9UJA3).
The test system of data set [2] is MCM8 (FLAG-MCM8);MCM9 (MBP-MCM9) (human;human). The data set can be described thus: EMSA. Particulars: EMSA: 25 mM Tris acetate pH 7.5, 3 mM EDTA (or 4 mM ATP + 1 mM Mg acetate), 1 mM DTT, 0.1 mg/ml BSA, 1 nM DNA (100 ng for plasmid-length DNA), 15 min on ice …. (A gel shift assay detects complexes by their altered migration in electrophoresis.)

human MCM8–9 complex, wild type (FLAG-MCM8 with MBP-MCM9, co-expressed) (human), sequence (Q9UJA3 whole entry, chain 1 of 2): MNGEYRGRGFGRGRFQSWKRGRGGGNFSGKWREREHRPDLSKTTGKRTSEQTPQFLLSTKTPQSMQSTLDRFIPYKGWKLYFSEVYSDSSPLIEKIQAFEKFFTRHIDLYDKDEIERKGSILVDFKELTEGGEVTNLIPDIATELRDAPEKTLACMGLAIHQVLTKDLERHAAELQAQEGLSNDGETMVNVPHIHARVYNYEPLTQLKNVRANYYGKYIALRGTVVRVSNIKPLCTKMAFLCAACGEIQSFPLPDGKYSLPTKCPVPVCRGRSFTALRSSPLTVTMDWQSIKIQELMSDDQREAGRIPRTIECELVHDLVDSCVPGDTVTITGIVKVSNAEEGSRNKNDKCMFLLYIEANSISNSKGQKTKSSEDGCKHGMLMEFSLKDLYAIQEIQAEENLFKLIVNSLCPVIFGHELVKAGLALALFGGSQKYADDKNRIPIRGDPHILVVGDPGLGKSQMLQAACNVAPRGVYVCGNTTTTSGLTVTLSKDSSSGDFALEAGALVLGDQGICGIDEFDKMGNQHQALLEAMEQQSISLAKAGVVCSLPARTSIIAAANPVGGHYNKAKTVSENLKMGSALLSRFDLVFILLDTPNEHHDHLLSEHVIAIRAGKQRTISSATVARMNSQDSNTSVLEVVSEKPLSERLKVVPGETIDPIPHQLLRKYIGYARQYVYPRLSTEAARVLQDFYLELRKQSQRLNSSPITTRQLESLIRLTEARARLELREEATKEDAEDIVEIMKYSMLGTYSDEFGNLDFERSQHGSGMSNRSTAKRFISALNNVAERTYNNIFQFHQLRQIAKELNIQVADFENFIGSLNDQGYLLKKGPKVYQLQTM
human MCM8–9 complex, wild type (FLAG-MCM8 with MBP-MCM9, co-expressed) (human), sequence (Q9NXL9 whole entry, chain 2 of 2, further chain): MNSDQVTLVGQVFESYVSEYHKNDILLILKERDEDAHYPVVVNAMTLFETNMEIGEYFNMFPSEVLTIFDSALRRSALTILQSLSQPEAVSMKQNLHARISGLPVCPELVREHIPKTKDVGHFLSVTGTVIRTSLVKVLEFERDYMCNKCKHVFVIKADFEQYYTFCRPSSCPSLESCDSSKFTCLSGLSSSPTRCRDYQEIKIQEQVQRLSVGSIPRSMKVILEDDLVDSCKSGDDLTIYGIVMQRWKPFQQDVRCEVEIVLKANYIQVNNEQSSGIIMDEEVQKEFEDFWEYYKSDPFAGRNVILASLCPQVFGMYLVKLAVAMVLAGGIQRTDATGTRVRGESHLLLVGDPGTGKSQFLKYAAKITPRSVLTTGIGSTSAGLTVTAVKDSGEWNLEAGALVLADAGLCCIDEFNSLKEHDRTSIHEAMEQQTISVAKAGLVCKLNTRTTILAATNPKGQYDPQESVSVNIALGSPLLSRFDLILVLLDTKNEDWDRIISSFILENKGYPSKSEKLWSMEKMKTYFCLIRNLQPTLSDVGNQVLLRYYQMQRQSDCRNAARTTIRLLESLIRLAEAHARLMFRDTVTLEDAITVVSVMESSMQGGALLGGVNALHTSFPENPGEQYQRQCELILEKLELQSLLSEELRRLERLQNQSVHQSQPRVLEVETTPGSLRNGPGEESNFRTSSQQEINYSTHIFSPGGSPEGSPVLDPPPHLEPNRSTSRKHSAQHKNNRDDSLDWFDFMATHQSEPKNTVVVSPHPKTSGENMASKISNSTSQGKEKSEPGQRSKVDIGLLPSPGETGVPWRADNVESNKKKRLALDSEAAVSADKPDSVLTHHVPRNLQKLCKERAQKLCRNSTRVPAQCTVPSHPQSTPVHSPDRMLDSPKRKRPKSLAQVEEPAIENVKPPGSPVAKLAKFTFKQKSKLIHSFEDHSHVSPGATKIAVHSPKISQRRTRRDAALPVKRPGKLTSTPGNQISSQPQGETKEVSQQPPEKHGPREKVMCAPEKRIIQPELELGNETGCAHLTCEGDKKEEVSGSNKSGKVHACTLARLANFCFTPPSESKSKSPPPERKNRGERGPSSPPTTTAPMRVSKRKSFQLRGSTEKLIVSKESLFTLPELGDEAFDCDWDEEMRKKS

In the case of “HROB-FLAG, wild type human HROB (homologous recombination factor with OB-fold) (from UniProt Q8N3J3-4 1-646) (natural protein)”, the ATP hydrolysis by MCM8–9 (200 nM) without or with HROB, DNA as co-factor; stimulation 1.5 to 2-fold in data set [1] was in the range of 1.5 to 2 fold.

For the substance “Holliday junction (PC1253/PC1254/PC1255/PC1256)”, the K half in data set [2] was 55 nM.

Regarding Y-structure (PC1254/PC1253), the K half in data set [2] was determined as 55 nM.
